Experimental findings from US20230293680A1 (Genmab, published 2023) are described below.

“And” between values parts separate entries of the source, which are not always exact repeats. Equal values may be shown once.

Experiment [1] addresses T1, DR5sh139-166ECDdelHis (human/mouse chimeric).
T1 construct: also called DR5sh139-166ECDdel-FcRbHisCtag
T1 chain: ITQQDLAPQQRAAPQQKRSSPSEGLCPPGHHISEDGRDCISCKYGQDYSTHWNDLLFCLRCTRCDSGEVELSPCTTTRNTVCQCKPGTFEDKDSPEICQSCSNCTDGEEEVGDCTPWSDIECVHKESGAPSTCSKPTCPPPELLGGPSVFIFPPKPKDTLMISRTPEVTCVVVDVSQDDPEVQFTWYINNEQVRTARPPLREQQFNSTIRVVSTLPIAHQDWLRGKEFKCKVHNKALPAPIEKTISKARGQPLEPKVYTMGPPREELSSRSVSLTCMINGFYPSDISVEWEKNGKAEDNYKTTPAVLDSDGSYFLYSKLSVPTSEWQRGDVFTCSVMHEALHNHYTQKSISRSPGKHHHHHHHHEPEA
As to the kind of experiment: ECLIA, coated DR5sh139-166ECDdelHis, detection with SULFO-TAG anti-human IgG.

Experiment [2] concerns the target T2, Cyno DR5Mfdel-K420N (cynomolgus monkey DR5 with deletion of amino acids 185-213 and death domain … (cynomolgus monkey)).
T2 construct: Transiently expressed on the membrane of CHO-S cells; Based on NCBI XP_005562887.1
T2 chain: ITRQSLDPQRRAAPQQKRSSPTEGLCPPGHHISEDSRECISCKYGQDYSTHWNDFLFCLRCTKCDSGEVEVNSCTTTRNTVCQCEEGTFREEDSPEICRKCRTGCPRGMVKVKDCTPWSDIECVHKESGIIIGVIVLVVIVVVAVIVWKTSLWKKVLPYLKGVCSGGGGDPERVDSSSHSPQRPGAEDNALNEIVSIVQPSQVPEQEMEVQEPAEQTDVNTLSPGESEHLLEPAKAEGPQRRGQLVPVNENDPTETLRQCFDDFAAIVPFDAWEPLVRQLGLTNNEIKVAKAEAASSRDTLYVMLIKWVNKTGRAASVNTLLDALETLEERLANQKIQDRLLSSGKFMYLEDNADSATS
Description: flow cytometry on CHO-S cells transiently expressing cynomolgus monkey DR5; average of n = 4, SD in brackets.

Experiment [3] deals with T3, DR5sh79-115ECDdelHis (human/mouse chimeric).
T3 construct: also called DR5sh79-115ECDdel-FcRbHisCtag
Description: ECLIA, coated DR5sh79-115ECDdelHis, detection with SULFO-TAG anti-human IgG.

B1: IgG1-hDR5-01-G56T-E430G (antibody, V domains shown)
VH: EVQLQQSGAEVVKPGASVKLSCKASGFNIKDTFIHWVKQAPGQGLEWIGRIDPANTNTKYDPKFQGKATITTDTSSNTAYMELSSLRSEDTAVYYCVRGLYTYYFDYWGQGTLVTVSS
VL: EIVMTQSPATLSVSPGERATLSCRASQSISNNLHWYQQKPGQAPRLLIKFASQSITGIPARFSGSGSGTEFTLTISSLQSEDFAVYYCQQGNSWPYTFGQGTKLEIKR
notes: also called first antibody; component of HexaBody-DR5/DR5
The term EC50 denotes the concentration giving half of the maximal effect. Turning to B1, the binding result in experiment [1] is listed as “no binding”. The EC50 in experiment [2] was 0.27 µg/mL and 1.77 nM.

B2: IgG1-hDR5-05-E430G (antibody, V domains shown)
VH: QVQLVQSGAEVKKPGASVKVSCKASGFNIKDTHMHWVRQAPGQRLEWIGRIDPANGNTEYDQKFQGRVTITVDTSASTAYMELSSLRSEDTAVYYCARWGTNVYFAYWGQGTLVTVSS
VL: DIQLTQSPSSLSASVGDRVTITCSASSSVSYMYWYQQKPGKAPKPWIYRTSNLASGVPSRFSGSGSGTDFTLTISSLQPEDFATYYCQQYHSYPPTFGGGTKVEIKR
notes: also called second antibody; component of HexaBody-DR5/DR5
With B2, the binding result in experiment [3] is “no binding”. In addition, in experiment [2], the 50% effective concentration (EC50) was 0.17 µg/mL and 1.16 nM.
